According to patent publication US20230002480A1:

Assays:
Assay in all cases: cell-based or functional assay
[1] = target: HIV-1 Env of pseudovirus 191955_A11 (HIV-1)
[2] = target: HIV-1 Env of pseudovirus Ce1086_B2 (HIV-1)
[3] = target: HIV-1 Env of pseudovirus 1006_11_C3_1601 (HIV-1)
[4] = target: HIV-1 Env of pseudovirus C1080.c03 (HIV-1)
[5] = target: HIV-1 Env of pseudovirus BJOX025000.01.1 (HIV-1)
[6] = target: HIV-1 Env of pseudovirus T250-4 (HIV-1)
[7] = target: HIV-1 Env of pseudovirus Ce0393_C3 (HIV-1)
[8] = target: HIV-1 Env of pseudovirus 1054_07_TC4_1499 (HIV-1)
[9] = target: HIV-1 Env of pseudovirus ZM53M.PB12 (HIV-1)
[10] = target: HIV-1 Env of pseudovirus CNE17 (HIV-1)
[11] = target: HIV-1 Env of pseudovirus 6545.v4.c1 (HIV-1)
[12] = target: HIV-1 Env of pseudovirus P0402_c2_11 (HIV-1)
[13] = target: HIV-1 Env of pseudovirus 7030102001E5(Rev-) (HIV-1)
[14] = target: HIV-1 Env of pseudovirus R1166.c01 (HIV-1)
[15] = target: HIV-1 Env of pseudovirus TRO.11 (HIV-1)
[16] = target: HIV-1 Env of pseudovirus 1012_11_TC21_3257 (HIV-1)
[17] = target: HIV-1 Env of pseudovirus 3301.v1.c24 (HIV-1)
[18] = target: HIV-1 Env of pseudovirus 1056_10_TA11_1826 (HIV-1)
[19] = target: HIV-1 Env of pseudovirus X2088_c9 (HIV-1)
[20] = target: HIV-1 Env of pseudovirus CAP45.2.00.G3 (HIV-1)
[21] = target: HIV-1 Env of pseudovirus 3365.v2.c2 (HIV-1)
[22] = target: HIV-1 Env of pseudovirus Ce2060_G9 (HIV-1)
[23] = target: HIV-1 Env of pseudovirus 6811.v7.c18 (HIV-1)
[24] = target: HIV-1 Env of pseudovirus C4118.c09 (HIV-1)
[25] = target: HIV-1 Env of pseudovirus P1981_C5_3 (HIV-1)
[26] = target: HIV-1 Env of pseudovirus X1254_c3 (HIV-1)
[27] = target: HIV-1 Env of pseudovirus CNE19 (HIV-1)
[28] = target: HIV-1 Env of pseudovirus Ce0682_E4 (HIV-1)
[29] = target: HIV-1 Env of pseudovirus Du172.17 (HIV-1)
[30] = target: HIV-1 Env of pseudovirus CNE53 (HIV-1)
[31] = target: HIV-1 Env of pseudovirus T255-34 (HIV-1)
[32] = target: HIV-1 Env of pseudovirus Q769.d22 (HIV-1)
[33] = target: HIV-1 Env of pseudovirus HIV-16055-2.3 (HIV-1)

B1: N49P22 (antibody, V domains shown)
V domain 1: HIQLLQSGPQVKKSGDTVRISCETSGYNFVDSRIHWVRQTPEKRLRWMGWINPLQGGVNYAPEFQGRIRMTRDTFIDTVYVDLSGLTPADTAYYYCARGIDGKSYPFHFWGHGTRVTVFS
V domain 2: RFALTQPASVSGSPGQTITITCAGGSVSWFHFPPGKTPRLIIYESSKRPSGVSPRFSGSQSGSTASLIISGLQSDDEGTYFCSILEFFGRGTLVTVLS
- IC50 [1]: > 50 µg/mL
- IC80 [1]: > 50 µg/mL
- MPI [1]: 9
- IC50 [2]: > 50 µg/mL
- IC80 [2]: > 50 µg/mL
- MPI [2]: 0
- IC50 [3]: 0.898 µg/mL
- IC80 [3]: 14.7 µg/mL
- MPI [3]: 83
- IC50 [4]: 15.9 µg/mL
- IC80 [4]: > 50 µg/mL
- MPI [4]: 64
- IC50 [5]: > 50 µg/mL
- IC80 [5]: > 50 µg/mL
- MPI [5]: 0
- IC50 [6]: > 50 µg/mL
- IC80 [6]: > 50 µg/mL
- MPI [6]: 5
- IC50 [7]: > 50 µg/mL
- IC80 [7]: > 50 µg/mL
- MPI [7]: 12
- IC50 [8]: 0.654 µg/mL
- IC80 [8]: 2.89 µg/mL
- MPI [8]: 100
- IC50 [9]: 1.2 µg/mL
- IC80 [9]: 11.8 µg/mL
- MPI [9]: 91
- IC50 [10]: 46.3 µg/mL
- IC80 [10]: > 50 µg/mL
- MPI [10]: 53
- IC50 [11]: > 50 µg/mL
- IC80 [11]: > 50 µg/mL
- MPI [11]: 17
- IC50 [12]: 5.93 µg/mL
- IC80 [12]: > 50 µg/mL
- MPI [12]: 73
- IC50 [13]: > 50 µg/mL
- IC80 [13]: > 50 µg/mL
- MPI [13]: 21
- IC50 [14]: 0.232 µg/mL
- IC80 [14]: 0.799 µg/mL
- MPI [14]: 100
- IC50 [15]: 0.283 µg/mL
- IC80 [15]: 1.36 µg/mL
- MPI [15]: 99
- IC50 [16]: 15.7 µg/mL
- IC80 [16]: > 50 µg/mL
- MPI [16]: 53
- IC50 [17]: 2.82 µg/mL
- IC80 [17]: 48.8 µg/mL
- MPI [17]: 80
- IC50 [18]: 2.99 µg/mL
- IC80 [18]: > 50 µg/mL
- MPI [18]: 69
- IC50 [19]: > 50 µg/mL
- IC80 [19]: > 50 µg/mL
- MPI [19]: 8
- IC50 [20]: > 50 µg/mL
- IC80 [20]: > 50 µg/mL
- MPI [20]: 0
- IC50 [21]: 0.254 µg/mL
- IC80 [21]: 0.857 µg/mL
- MPI [21]: 98
- IC50 [22]: > 50 µg/mL
- IC80 [22]: > 50 µg/mL
- MPI [22]: 19
- IC50 [23]: 1 µg/mL
- IC80 [23]: 9.72 µg/mL
- MPI [23]: 92
- IC50 [24]: 1.82 µg/mL
- IC80 [24]: 26.6 µg/mL
- MPI [24]: 93
- IC50 [25]: > 50 µg/mL
- IC80 [25]: > 50 µg/mL
- MPI [25]: 48
- IC50 [26]: 3.06 µg/mL
- IC80 [26]: 29.8 µg/mL
- MPI [26]: 84
- IC50 [27]: 0.873 µg/mL
- IC80 [27]: 8.19 µg/mL
- MPI [27]: 92
- IC50 [28]: 1.13 µg/mL
- IC80 [28]: > 50 µg/mL
- MPI [28]: 75
- IC50 [29]: > 50 µg/mL
- IC80 [29]: > 50 µg/mL
- MPI [29]: 4
- IC50 [30]: 0.779 µg/mL
- IC80 [30]: 5.11 µg/mL
- MPI [30]: 93
- IC50 [31]: 38.8 µg/mL
- IC80 [31]: > 50 µg/mL
- MPI [31]: 55
- IC50 [32]: 0.043 µg/mL
- IC80 [32]: 0.259 µg/mL
- MPI [32]: 100
- IC50 [33]: 4.66 µg/mL
- IC80 [33]: 39.7 µg/mL
- MPI [33]: 83

B2: N49P23 (antibody, V domains shown)
VH: QVRLVQSGAGARKTGASMKLSCSTSGYTFTTHHGHFINWVRQARGQGLEWMGWMNPMTGQMNIEGKFQGRVTLTRDIYSDTAYMEMTRLTTGDTGTYYCARGDFGQNYPFHYWGQGSLVIVSS
VL: LSALTQPASVSGSPGQSVTISCSGTNRYLVSWYQQHPDKAPKLIIYDDNKRPSGISDRFSASRPDDTASLTISGLQTGDEATYWCASYERFGGGTRLTVLS
- IC50 [1]: > 50 µg/mL
- IC80 [1]: > 50 µg/mL
- MPI [1]: 31
- IC50 [2]: 0.063 µg/mL
- IC80 [2]: 0.303 µg/mL
- MPI [2]: 100
- IC50 [3]: 0.015 µg/mL
- IC80 [3]: 0.054 µg/mL
- MPI [3]: 100
- IC50 [4]: 1.33 µg/mL
- IC80 [4]: 11.3 µg/mL
- MPI [4]: 96
- IC50 [5]: > 50 µg/mL
- IC80 [5]: > 50 µg/mL
- MPI [5]: 0
- IC50 [6]: > 50 µg/mL
- IC80 [6]: > 50 µg/mL
- MPI [6]: 0
- IC50 [7]: > 50 µg/mL
- IC80 [7]: > 50 µg/mL
- MPI [7]: 29
- IC50 [8]: 0.272 µg/mL
- IC80 [8]: 1.21 µg/mL
- MPI [8]: 100
- IC50 [9]: 0.135 µg/mL
- IC80 [9]: 0.651 µg/mL
- MPI [9]: 100
- IC50 [10]: 0.221 µg/mL
- IC80 [10]: 0.809 µg/mL
- MPI [10]: 100
- IC50 [11]: > 50 µg/mL
- IC80 [11]: > 50 µg/mL
- MPI [11]: 10
- IC50 [12]: 0.022 µg/mL
- IC80 [12]: 0.065 µg/mL
- MPI [12]: 100
- IC50 [13]: 0.172 µg/mL
- IC80 [13]: 0.797 µg/mL
- MPI [13]: 100
- IC50 [14]: 0.123 µg/mL
- IC80 [14]: 0.455 µg/mL
- MPI [14]: 100
- IC50 [15]: 0.094 µg/mL
- IC80 [15]: 0.336 µg/mL
- MPI [15]: 100
- IC50 [16]: 0.013 µg/mL
- IC80 [16]: 0.085 µg/mL
- MPI [16]: 100
- IC50 [17]: 0.017 µg/mL
- IC80 [17]: 0.058 µg/mL
- MPI [17]: 100
- IC50 [18]: 0.075 µg/mL
- IC80 [18]: 0.483 µg/mL
- MPI [18]: 100
- IC50 [19]: > 50 µg/mL
- IC80 [19]: > 50 µg/mL
- MPI [19]: 10
- IC50 [20]: > 50 µg/mL
- IC80 [20]: > 50 µg/mL
- MPI [20]: 0
- IC50 [21]: 0.017 µg/mL
- IC80 [21]: 0.053 µg/mL
- MPI [21]: 100
- IC50 [22]: 0.18 µg/mL
- IC80 [22]: 0.849 µg/mL
- MPI [22]: 99
- IC50 [23]: 17.7 µg/mL
- IC80 [23]: > 50 µg/mL
- MPI [23]: 61
- IC50 [24]: 0.026 µg/mL
- IC80 [24]: 0.12 µg/mL
- MPI [24]: 100
- IC50 [25]: 0.096 µg/mL
- IC80 [25]: 0.264 µg/mL
- MPI [25]: 100
- IC50 [26]: 0.022 µg/mL
- IC80 [26]: 0.111 µg/mL
- MPI [26]: 100
- IC50 [27]: > 50 µg/mL
- IC80 [27]: > 50 µg/mL
- MPI [27]: 40
- IC50 [28]: 1.39 µg/mL
- IC80 [28]: > 50 µg/mL
- MPI [28]: 76
- IC50 [29]: > 50 µg/mL
- IC80 [29]: > 50 µg/mL
- MPI [29]: 45
- IC50 [30]: 0.026 µg/mL
- IC80 [30]: 0.095 µg/mL
- MPI [30]: 100
- IC50 [31]: > 50 µg/mL
- IC80 [31]: > 50 µg/mL
- MPI [31]: 20
- IC50 [32]: 0.005 µg/mL
- IC80 [32]: 0.025 µg/mL
- MPI [32]: 100
- IC50 [33]: > 50 µg/mL
- IC80 [33]: > 50 µg/mL
- MPI [33]: 17
